Reference: the Immune Epitope Database (IEDB)

Legend:
HLA-A*01:01 [1] = experiment: IEDB peptide-MHC binding, purified MHC/competitive/fluorescence; filed as Kd, often an IC50 or EC50 that approximates it; ≥ and ≤ were set here for values at or beyond the usual limits of such assays
HLA-B*58:01 [2] = experiment: as above
HLA-B*15:01 [3] = experiment: as above
HLA-A*03:01 [4] = experiment: as above; conditions: source organism: Salmonella enterica subsp. enterica serovar Typhi
HLA-A*69:01 [5] = experiment: IEDB peptide-MHC binding, purified MHC/direct/fluorescence; filed as Kd, often an IC50 or EC50 that approximates it; ≥ and ≤ were set here for values at or beyond the usual limits of such assays
HLA-A*01:01 [6] = experiment: as above
HLA-A*31:01 = experiment: as above
HLA-B*46:01 [7] = experiment: as above
HLA-B*58:01 [8] = experiment: as above
HLA-A*02:01 [9] = experiment: as above
HLA-B*15:01 [10] = experiment: as above
HLA-A*24:02 = experiment: as above
HLA-B*08:01 = experiment: as above; conditions: source organism: Rickettsia felis URRWXCal2
HLA-B*40:01 = experiment: as above
HLA-B*18:01 [11] = experiment: as above
HLA-B*44:02 = experiment: as above
HLA-B*07:02 = experiment: as above
HLA-A*11:01 = experiment: as above
HLA-B*27:05 = experiment: as above
HLA-A*26:01 [12] = experiment: as above; conditions: source organism: Rickettsia felis URRWXCal2
HLA-A*03:01 [13] = experiment: as above
HLA-A*23:01 = experiment: as above
HLA-A*24:03 = experiment: as above
HLA-A*69:01 [14] = experiment: IEDB peptide-MHC binding, purified MHC/competitive/fluorescence; filed as Kd, often an IC50 or EC50 that approximates it; ≥ and ≤ were set here for values at or beyond the usual limits of such assays
HLA-B*51:01 = experiment: as above
HLA-B*46:01 [15] = experiment: as above
HLA-B*15:17 = experiment: as above
HLA-A*02:01 [16] = experiment: as above
HLA-B*39:01 = experiment: as above
HLA-B*57:01 [17] = experiment: as above
HLA-B*18:01 [18] = experiment: as above
HLA-A*26:01 [19] = experiment: as above
HLA-A*02:12 = experiment: IEDB peptide-MHC binding, purified MHC/direct/fluorescence; filed as Kd, often an IC50 or EC50 that approximates it; ≥ and ≤ were set here for values at or beyond the usual limits of such assays
HLA-A*68:02 = experiment: as above
HLA-A*02:19 = experiment: as above
HLA-A*02:16 = experiment: as above
HLA-A*02:03 = experiment: as above
HLA-A*29:02 = experiment: as above
HLA-A*02:11 = experiment: as above
HLA-B*48:01 = experiment: as above; conditions: source organism: West Nile virus
HLA-A*80:01 = experiment: as above; conditions: source organism: West Nile virus
HLA-B*57:01 [20] = experiment: as above; conditions: source organism: West Nile virus
HLA-B*27:03 = experiment: IEDB peptide-MHC binding, purified MHC/competitive/fluorescence; filed as Kd, often an IC50 or EC50 that approximates it; ≥ and ≤ were set here for values at or beyond the usual limits of such assays; conditions: source organism: Bacillus anthracis str. A0488
[21] = source organism: Salmonella enterica subsp. enterica serovar Typhi
[22] = source organism: Rickettsia australis
[23] = source organism: Burkholderia mallei ATCC 23344
[24] = source organism: Salmonella enterica subsp. enterica serovar Paratyphi B str. SPB7
[25] = source organism: Bacillus anthracis str. A2012
[26] = source organism: Bacillus anthracis str. Sterne
[27] = source organism: West Nile virus
[28] = source organism: Bacillus anthracis str. A0488
[29] = source organism: Bacillus cereus 03BB108
[30] = source organism: Giardia lamblia ATCC 50803

ASIADILTY
Kd (HLA-A*01:01 [1]; [21]): 0.764 µM
Kd (HLA-B*58:01 [2]; [21]): 0.0207 µM
Kd (HLA-B*15:01 [3]; [21]): 0.425 µM
Kd (HLA-A*03:01 [4]): ≥ 20 µM

ATYGTAVNK
Kd (HLA-A*69:01 [5]; [22]): ≥ 20 µM
Kd (HLA-A*01:01 [6]; [22]): ≥ 20 µM
Kd (HLA-A*31:01; [22]): 0.0371 µM
Kd (HLA-B*46:01 [7]; [22]): ≥ 20 µM
Kd (HLA-B*58:01 [8]; [22]): ≥ 20 µM
Kd (HLA-A*02:01 [9]; [22]): ≥ 20 µM
Kd (HLA-B*15:01 [10]; [22]): ≥ 20 µM
Kd (HLA-A*24:02; [22]): ≥ 20 µM
Kd (HLA-B*08:01): ≥ 20 µM
Kd (HLA-B*40:01; [22]): ≥ 20 µM
Kd (HLA-B*18:01 [11]; [22]): ≥ 20 µM
Kd (HLA-B*44:02; [22]): ≥ 20 µM
Kd (HLA-B*07:02; [22]): ≥ 20 µM
Kd (HLA-A*11:01; [22]): 0.0296 µM
Kd (HLA-B*27:05; [22]): ≥ 20 µM
Kd (HLA-A*26:01 [12]): ≥ 20 µM
Kd (HLA-A*03:01 [13]; [22]): 0.0833 µM

CYRGVRHRK
Kd (HLA-A*23:01; [23]): 0.41 µM
Kd (HLA-A*24:03; [23]): 1.39 µM

FSDLLSMAW
Kd (HLA-A*01:01 [1]; [24]): 0.0014 µM
Kd (HLA-B*58:01 [2]; [24]): 0.0024 µM
Kd (HLA-B*15:01 [3]; [24]): ≥ 20 µM

IFQKISFFW
Kd (HLA-A*24:02; source organism: Cryptosporidium parvum Iowa II): 0.017 µM

KKNHWFILK
Kd (HLA-A*69:01 [14]; [25]): ≥ 20 µM
Kd (HLA-B*51:01; [25]): ≥ 20 µM
Kd (HLA-B*46:01 [15]; [25]): ≥ 20 µM
Kd (HLA-B*15:17; [25]): ≥ 20 µM
Kd (HLA-A*02:01 [16]; [25]): ≥ 20 µM
Kd (HLA-B*39:01; [25]): ≥ 20 µM
Kd (HLA-B*57:01 [17]; [25]): ≥ 20 µM
Kd (HLA-B*18:01 [18]; [25]): ≥ 20 µM
Kd (HLA-A*26:01 [19]; [25]): ≥ 20 µM
Kd (HLA-A*23:01; [26]): ≥ 20 µM
Kd (HLA-A*02:12; [26]): ≥ 20 µM
Kd (HLA-A*68:02; [26]): ≥ 20 µM
Kd (HLA-A*24:03; [26]): ≥ 20 µM
Kd (HLA-A*02:19; [26]): ≥ 20 µM
Kd (HLA-A*02:16; [26]): ≥ 20 µM
Kd (HLA-A*11:01; [26]): 0.254 µM
Kd (HLA-A*02:03; [26]): ≥ 20 µM
Kd (HLA-A*29:02; [26]): ≥ 20 µM
Kd (HLA-A*02:11; [26]): ≥ 20 µM

MLRKKQITV
Kd (HLA-B*48:01): ≥ 20 µM
Kd (HLA-A*69:01 [5]; [27]): ≥ 20 µM
Kd (HLA-A*01:01 [6]; [27]): ≥ 20 µM
Kd (HLA-A*31:01; [27]): ≥ 20 µM
Kd (HLA-B*46:01 [7]; [27]): ≥ 20 µM
Kd (HLA-A*80:01): ≥ 20 µM
Kd (HLA-B*58:01 [8]; [27]): ≥ 20 µM
Kd (HLA-B*57:01 [20]): ≥ 20 µM
Kd (HLA-B*40:01; [27]): ≥ 20 µM
Kd (HLA-B*18:01 [11]; [27]): ≥ 20 µM
Kd (HLA-B*44:02; [27]): ≥ 20 µM
Kd (HLA-B*27:05; [27]): ≥ 20 µM
Kd (HLA-A*29:02; [27]): ≥ 20 µM

SYMLQGLRK
Kd (HLA-A*69:01 [14]; [28]): ≥ 20 µM
Kd (HLA-B*51:01; [28]): ≥ 20 µM
Kd (HLA-B*46:01 [15]; [28]): ≥ 20 µM
Kd (HLA-B*15:17; [28]): ≥ 20 µM
Kd (HLA-A*02:01 [16]; [28]): ≥ 20 µM
Kd (HLA-B*39:01; [28]): ≥ 20 µM
Kd (HLA-B*57:01 [17]; [28]): ≥ 20 µM
Kd (HLA-B*18:01 [18]; [28]): ≥ 20 µM
Kd (HLA-B*27:03): ≥ 20 µM
Kd (HLA-A*26:01 [19]; [28]): ≥ 20 µM
Kd (HLA-A*23:01; [29]): ≥ 20 µM
Kd (HLA-A*02:12; [29]): ≥ 20 µM
Kd (HLA-A*68:02; [29]): ≥ 20 µM
Kd (HLA-A*24:03; [29]): ≥ 20 µM
Kd (HLA-A*02:19; [29]): ≥ 20 µM
Kd (HLA-A*02:16; [29]): ≥ 20 µM
Kd (HLA-A*11:01; [29]): 0.228 µM
Kd (HLA-A*02:03; [29]): ≥ 20 µM
Kd (HLA-A*02:11; [29]): ≥ 20 µM
Kd (HLA-A*03:01 [13]; [29]): ≥ 20 µM

WLKEKHEEL
Kd (HLA-A*01:01 [6]; [30]): ≥ 20 µM
Kd (HLA-B*46:01 [7]; [30]): ≥ 20 µM
Kd (HLA-B*58:01 [8]; [30]): ≥ 20 µM
Kd (HLA-A*02:01 [9]; [30]): 0.304 µM
Kd (HLA-B*15:01 [10]; [30]): 0.498 µM
Kd (HLA-A*24:02; [30]): ≥ 20 µM
Kd (HLA-B*40:01; [30]): ≥ 20 µM
Kd (HLA-B*18:01 [11]; [30]): ≥ 20 µM
Kd (HLA-B*44:02; [30]): ≥ 20 µM
Kd (HLA-B*07:02; [30]): ≥ 20 µM
Kd (HLA-A*11:01; [30]): ≥ 20 µM
Kd (HLA-B*27:05; [30]): ≥ 20 µM
Kd (HLA-A*03:01 [13]; [30]): ≥ 20 µM
